Target: T1, N-terminus of Glis3 (aa 1-653) fused to the Gal4 DBD (mouse, UniProt F6SGN4 1-653)
T1 sequence (looked up): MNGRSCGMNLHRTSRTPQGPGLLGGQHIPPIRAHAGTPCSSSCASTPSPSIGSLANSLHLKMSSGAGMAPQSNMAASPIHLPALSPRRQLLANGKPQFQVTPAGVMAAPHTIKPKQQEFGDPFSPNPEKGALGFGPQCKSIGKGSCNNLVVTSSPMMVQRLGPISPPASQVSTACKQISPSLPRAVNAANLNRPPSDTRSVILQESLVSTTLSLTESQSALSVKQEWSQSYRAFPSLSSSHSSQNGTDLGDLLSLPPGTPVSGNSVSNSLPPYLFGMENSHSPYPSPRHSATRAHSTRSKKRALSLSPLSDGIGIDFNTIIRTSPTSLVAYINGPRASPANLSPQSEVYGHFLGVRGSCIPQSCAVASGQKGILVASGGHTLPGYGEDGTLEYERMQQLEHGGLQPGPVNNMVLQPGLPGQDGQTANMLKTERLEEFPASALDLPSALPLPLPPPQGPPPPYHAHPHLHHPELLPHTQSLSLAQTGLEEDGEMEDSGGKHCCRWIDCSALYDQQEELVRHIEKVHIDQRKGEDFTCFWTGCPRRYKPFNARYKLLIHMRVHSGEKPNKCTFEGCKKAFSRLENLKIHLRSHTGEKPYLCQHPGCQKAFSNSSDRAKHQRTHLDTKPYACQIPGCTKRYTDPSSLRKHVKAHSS
Assay: two-hybrid

B1: full length PIASy fused to the Gal4 AD (VP16-PIASy) (natural protein, UniProt Q9JM05 1-507, looked up)
chain: MAAELVEAKNMVMSFRVSDLQMLLGFVGRSKSGLKHELVTRALQLVQFDCSPELFKKIKELYETRYAKKSAEPGPQAPRPLDPLALHSMPRTPLSGPTVDYPVLYGKYLNGLGRLPTKTLKPEVRLVKLPFFNMLDELLKPTELVPQSAEKLQESPCIFALTPRQVEMIRNSRELQPGVKAVQVVLRICYSDTSCPQEDQYPPNIAVKVNHSYCSVPGYYPSNKPGVEPKRPCRPINLTHLMYLSSATNRITVTWGNYGKSYSVALYLVRQLTSSDLLQRLKTIGVKHPELCKALVKEKLRLDPDSEIATTGVRVSLICPLVKMRLSVPCRAETCAHLQCFDAVFYLQMNEKKPTWMCPVCDKPAAYDQLIIDGLLSKILSECEGADEIEFLAEGSWRPIRAEKEPSCSPQGPILVLGTSDANGLAPASSTPGIGSGLSGPGSAGSGAGAAGSLENGKTGADVVDLTLDSSSSSEDEDEDEDDDEDEDEGPRPKRRCPFQKGLVPAC
fold increase in luciferase expression (two-hybrid, chimeras co-expressed): 1.5 fold

— PMC6077130 (Heliyon, 2018)
